Experimental data reported in patent CN114651011A (dated 2022).
Positions count from the first letter of the chain named.

T1: 重组人CD43细胞外部分 (aa 20-253), produced in E. coli, not glycosylated (human, UniProt P16150 20-253)
T1 construct: also called 重组人CD43分析物(aa 20-253); CD43的无糖基化细胞外部分
T1 sequence: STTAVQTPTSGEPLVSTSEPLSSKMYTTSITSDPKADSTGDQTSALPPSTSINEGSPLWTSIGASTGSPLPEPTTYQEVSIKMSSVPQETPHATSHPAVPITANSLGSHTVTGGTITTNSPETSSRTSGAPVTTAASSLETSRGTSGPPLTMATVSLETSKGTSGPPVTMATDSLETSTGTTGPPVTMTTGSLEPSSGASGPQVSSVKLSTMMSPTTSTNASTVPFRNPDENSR

T2: 野生型肽 PPSTSINEGSPLWTS (aa 66-80 of human CD43), peptide of the epitope substitution scan (human)
T2 construct: also called wild-type peptide; 人CD43的线性表位，用于取代筛选
T2 peptide: PPSTSINEGSPLWTS

T3: CD43#6 (CD43 with aa 64 to 78 deleted), expressed in HEK293T cells (human, UniProt P16150 20-400)
T3 construct: also called CD43克隆#6; 第五CD43变体; not shown: His tag (and GFP by the name of the vector pLenti-CMV-(insert)-Histag-GFP-2A-Puro)
T3 sequence: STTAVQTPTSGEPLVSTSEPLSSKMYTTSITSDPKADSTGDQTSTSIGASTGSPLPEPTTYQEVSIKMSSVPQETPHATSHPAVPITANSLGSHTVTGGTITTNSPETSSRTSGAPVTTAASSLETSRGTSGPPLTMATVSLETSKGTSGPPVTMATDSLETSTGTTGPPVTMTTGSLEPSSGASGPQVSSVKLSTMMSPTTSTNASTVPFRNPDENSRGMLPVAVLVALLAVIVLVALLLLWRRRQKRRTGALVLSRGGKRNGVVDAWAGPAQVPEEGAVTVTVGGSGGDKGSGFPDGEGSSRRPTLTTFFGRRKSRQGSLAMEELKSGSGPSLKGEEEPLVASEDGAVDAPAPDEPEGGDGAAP

T4: 人CD43 (human CD43, UMG1 epitope), endogenous on human cells, cell lines and tissues (human, UniProt P16150 20-400)
T4 construct: The cells carry the natural protein; also called UMG1表位; UMG1抗原
T4 sequence: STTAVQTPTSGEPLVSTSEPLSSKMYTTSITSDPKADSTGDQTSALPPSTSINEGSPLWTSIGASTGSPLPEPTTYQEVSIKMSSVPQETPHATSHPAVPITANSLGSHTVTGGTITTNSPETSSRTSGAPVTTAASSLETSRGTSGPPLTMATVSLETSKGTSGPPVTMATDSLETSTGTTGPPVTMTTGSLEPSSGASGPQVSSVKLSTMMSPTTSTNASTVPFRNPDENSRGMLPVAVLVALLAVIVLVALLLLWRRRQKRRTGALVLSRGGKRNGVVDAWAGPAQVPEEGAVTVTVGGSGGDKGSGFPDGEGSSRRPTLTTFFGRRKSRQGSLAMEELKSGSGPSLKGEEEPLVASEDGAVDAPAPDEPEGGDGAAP

B1: h-UMG1 (人源化UMG1单克隆抗体, H3-L4) (antibody, human IgG1, kappa, V domains shown)
VH: EVQLVESGGGLVQPGGSLRLSCVASGFTFSSFGMHWVRQAPGKGLEWVAYISSGSGNFYYVDTVKGRFTISRDNAKNSLYLQMNSLRAEDTAVYYCARSTYYHGSRGAMDYWGQGTLVTVSS
VL: QVVMTQSPAFLSVTPGEKVTITCSASSSVSSMYWYQLKPDQAPKLLIYDTSKMASGVPIRFSGSGSGTDFTFTVSSVEAEDAATYYCQQWSSYPPITFGGGTKVEIKR
notes: IgG1; also called h-UMG1单抗; 人源化单克隆抗CD43抗体
B2: 单克隆抗体UMG1 (murine anti-human CD43 antibody produced by the hybridoma deposited as ICLC PD n°16001) (antibody, V domains shown)
VH: DVQLVESGGGLVQPGGSRKLSCVASGFTFSSFGMHWVRQAPEKGLEWVAYISSGSGNFYYVDTVKGRFTISRDNPKNTLFLQMTSLRSEDTAMYYCARSTYYHGSRGAMDYWGQGTSVTVSS
VL: QIALTQSPAIMSASPGEKVTMTCSASSSVSSMYWYQLKPGSSPRLLIYDTSKMASGVPIRFSGSGSGTSFSLTVSRVEAEDAATYYCQQWSSYPPITFGAGSKLELK
notes: Murine antibody, kappa light chain; the negative control is a murine IgG1; also called m-UMG1; mUMG1
B3: ch-UMG1 (嵌合抗体, murine UMG1 variable regions on human IgG1 constant regions) (antibody, V domains shown)
VH: B2 VH
VL: QIALTQSPAIMSASPGEKVTMTCSASSSVSSMYWYQLKPGSSPRLLIYDTSKMASGVPIRFSGSGSGTSFSLTVSRVEAEDAATYYCQQWSSYPPITFGAGSKLELKR
notes: also called UMG1-CH; 嵌合单克隆抗体
B4: 人源化UMG1抗体 H2-L1 (antibody, IgG1, V domains shown)
VH: B1 VH with A49S
VL: EIVLTQSPATLSLSPGERATLSCSASSSVSSMYWYQQKPGLAPRLLIYDTSKMASGIPDRFSGSGSGTDFTLTISRLEPEDFAVYYCQQWSSYPPITFGQGTRLEIK
notes: one of the 16 combinations of H1-4 with L1-4
B5: 人源化UMG1抗体 H1-L1 (antibody, IgG1, V domains shown)
VH: B1 VH with V23A, A49S
VL: B4 VL
notes: as for B4
B6: 人源化UMG1抗体 H1-L2 (antibody, IgG1, V domains shown)
VH: B1 VH with V23A, A49S
VL: B4 VL with V3A, Q37L, D59I, I74V, L77V
notes: as for B4
B7: 人源化UMG1抗体 H2-L2 (antibody, IgG1, V domains shown)
VH: B1 VH with A49S
VL: B4 VL with V3A, Q37L, D59I, I74V, L77V
notes: as for B4
B8: 人源化UMG1抗体 H3-L1 (antibody, IgG1, V domains shown)
VH: B1 VH
VL: B4 VL
notes: as for B4
B9: 人源化UMG1抗体 H3-L2 (antibody, IgG1, V domains shown)
VH: B1 VH
VL: B4 VL with V3A, Q37L, D59I, I74V, L77V
notes: as for B4
B10: 人源化UMG1抗体 H4-L1 (antibody, IgG1, V domains shown)
VH: B1 VH with E1Q, L11V, A75S, S78T
VL: B4 VL
notes: as for B4
B11: 人源化UMG1抗体 H4-L2 (antibody, IgG1, V domains shown)
VH: B1 VH with E1Q, L11V, A75S, S78T
VL: B4 VL with V3A, Q37L, D59I, I74V, L77V
notes: as for B4
B12: 人源化UMG1抗体 H2-L3 (antibody, IgG1, V domains shown)
VH: B1 VH with A49S
VL: QVVMTQSPAFLSVTPGEKVTITCSASSSVSSMYWYQQKPDQAPKLLIYDTSKMASGVPSRFSGSGSGTDFTFTISSLEAEDAATYYCQQWSSYPPITFGGGTKVEIK
notes: as for B4
B13: 人源化UMG1抗体 H1-L3 (antibody, IgG1, V domains shown)
VH: B1 VH with V23A, A49S
VL: B12 VL
notes: as for B4
B14: 人源化UMG1抗体 H1-L4 (antibody, IgG1, V domains shown)
VH: B1 VH with V23A, A49S
VL: B12 VL with Q37L, S59I, I74V, L77V
notes: as for B4
B15: 人源化UMG1抗体 H2-L4 (antibody, IgG1, V domains shown)
VH: B1 VH with A49S
VL: B12 VL with Q37L, S59I, I74V, L77V
notes: as for B4
B16: 人源化UMG1抗体 H3-L3 (antibody, IgG1, V domains shown)
VH: B1 VH
VL: B12 VL
notes: as for B4
B17: 人源化UMG1抗体 H4-L3 (antibody, IgG1, V domains shown)
VH: B1 VH with E1Q, L11V, A75S, S78T
VL: B12 VL
notes: as for B4
B18: 人源化UMG1抗体 H4-L4 (antibody, IgG1, V domains shown)
VH: B1 VH with E1Q, L11V, A75S, S78T
VL: B12 VL with Q37L, S59I, I74V, L77V
notes: as for B4

Tests used:
[1] = target: T1, 重组人CD43细胞外部分 (aa 20-253), produced in …; experiment: SPRi (PlexArray HT), antibody printed on the gold chip, recombinant CD43 aa 20-253 from E. coli as analyte, 25°C
[2] = target: T2, 野生型肽 PPSTSINEGSPLWTS (aa 66-80 of human …); experiment: substitution scan peptide microarray, antibody at 1, 10, 100 and 250 μg/ml
[3] = target: T3, CD43#6 (CD43 with aa 64 to 78 deleted), …; experiment: FACS with h-UMG1-PE on GFP-positive transfected HEK293T cells
[4] = target: T4, 人CD43 (human CD43, UMG1 epitope), …; experiment: flow cytometry on PBMC of healthy donors, 1 μg/ml, FITC secondary antibody
[5] = target: T4, 人CD43 (human CD43, UMG1 epitope), …; experiment: immunofluorescence on fixed THP-1-derived macrophages without or with PANC1 cells
[6] = target: T4, 人CD43 (human CD43, UMG1 epitope), …; experiment: flow cytometry (MFI) on HPB-ALL and H9 cells, 1 μg/ml, FITC mouse anti-human IgG

| Binder | binding result [6] | further results |
| --- | --- | --- |
| B1 | – | Kd [1]: 0.0994 µM; binding result [2]: binds; binding result [3]: no binding (tested: 1μg/ml) |
| B2 | – | binding result [4]: binds |
| B3 | – | binding result [5]: binds |
| B4 | binds | – |
| B5 | binds | – |
| B6 | binds | – |
| B7 | binds | – |
| B8 | binds | – |
| B9 | binds | – |
| B10 | binds | – |
| B11 | binds | – |
| B12 | binds | – |
| B13 | binds | – |
| B14 | binds | – |
| B15 | binds | – |
| B16 | binds | – |
| B17 | binds | – |
| B18 | binds | – |
